Measurements taken from patent publication US20230277625A1 (SIMCHA IL 18, published 2023).
Substitutions are numbered along the chain they refer to.

Legend:
[1] = molecular target: T1, Human IL-18Rα ectodomain (amino acids 19-329), biotinylated (human, UniProt Q13478 19-329, biotin on the AviTag (BirA ligase)); test: SPR, apparent KD, second value of the cell; Exp 1
T1 construct: range 19-329; Secreted from insect cells (gp67 signal peptide removed); also called hIL-18Rα; hIL18Rα
T1 sequence: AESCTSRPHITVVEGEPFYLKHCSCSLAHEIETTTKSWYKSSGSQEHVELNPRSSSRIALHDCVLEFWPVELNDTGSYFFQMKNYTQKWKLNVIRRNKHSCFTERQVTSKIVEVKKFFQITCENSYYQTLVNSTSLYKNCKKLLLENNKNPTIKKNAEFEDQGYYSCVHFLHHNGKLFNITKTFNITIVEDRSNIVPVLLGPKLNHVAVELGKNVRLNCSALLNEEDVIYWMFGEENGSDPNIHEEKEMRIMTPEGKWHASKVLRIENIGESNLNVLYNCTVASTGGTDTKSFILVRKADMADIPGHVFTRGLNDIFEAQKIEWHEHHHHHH
Procedure: (§1) Surface Plasmon Resonance (SPR) was used to perform biophysical affinity measurements of second generation DR-IL-18 variants (binding to IL-18R vs IL-18BP). Experiments were conducted using a Biacore T100 instrument and carried out at 25° C. Biotinylated IL-18Rα or IL-18BP were immobilized onto a Biacore biotin capture chip (Series S CAP sensor chip, GE Healthcare) to yield an Rmax of ˜50 RU (IL-18Rα) or ˜10 RU (IL-18BP). Measurements were made with serial dilutions of the IL-18 variants in HEPES buffered Saline-P+ buffer (10 mM HEPES pH 7.4, 150 mM NaCl, 0.005% surfactant P20). The surface was regenerated by three 60-sec injections of regeneration buffer (3/4 (v/v) 8M guanidine hydrochloride with ¼ (v/v) 1M sodium hydroxide). Experiments were performed in multiple channels simultaneously for increased observations. All data were analyzed with the Biacore T100 evaluation software version 2.0 with a 1:1 Langmuir binding model.

[2] = molecular target: T1, Human IL-18Rα ectodomain (amino acids …); test: SPR, apparent KD, first value of the cell; Exp 2
Procedure: as §1

[3] = molecular target: T1, Human IL-18Rα ectodomain (amino acids …); test: SPR (Biacore T100), hIL-18Rα as surface ligand, 1:1 Langmuir
Procedure: as §1

[4] = molecular target: T1, Human IL-18Rα ectodomain (amino acids …); test: SPR (Biacore T100), hIL-18Rα as surface ligand; Exp 1
Procedure: as §1

[5] = molecular target: T2, Human IL-18BP (amino acids 31-194), biotinylated (human, UniProt O95998 31-194, biotin on the AviTag (BirA ligase) where used biotinylated); test: on-yeast binding isotherms; KD ratio relative to WT IL-18; yeast-displayed variant; ratio normalized to WT, from the 20 µM placeholder
T2 construct: Soluble decoy receptor; also called hIL-18BP; recombinant IL-18BP
T2 sequence: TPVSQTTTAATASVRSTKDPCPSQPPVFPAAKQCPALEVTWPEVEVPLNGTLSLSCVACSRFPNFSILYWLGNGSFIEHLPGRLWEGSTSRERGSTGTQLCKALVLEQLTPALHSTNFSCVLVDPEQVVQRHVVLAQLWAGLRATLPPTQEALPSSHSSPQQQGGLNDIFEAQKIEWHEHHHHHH

[6] = molecular target: T2, Human IL-18BP (amino acids 31-194), …; test: on-yeast binding isotherms; 20 µM used for NBD; printed without '>'; yeast-displayed variant; ratio computed with 20 µM put in for NBD
[7] = molecular target: T1, Human IL-18Rα ectodomain (amino acids …); test: on-yeast binding isotherm (flow cytometry), drawn summary table, IL18Rα (KD)
Procedure: Individual colonies of IL-18 yeast were grown overnight at 30° C. in SDCAA liquid media and induced in SGCAA liquid media for 1 day at 20° C. IL-18 display levels on yeast were verified by flow cytometry using an anti-cMyc tag antibody (anti-myc-PE; Cell Signaling Technologies). Receptor staining with biotinylated IL-18Rα (with or without IL-18R β) or biotinylated IL-18BP was performed in PBS supplemented with 0.5% BSA and 2 mM EDTA (PBE) on ice. All analysis was performed on a Sony SA3800 flow cytometer.

[8] = molecular target: T2, Human IL-18BP (amino acids 31-194), …; test: SPR; KD(IL-18BP)/KD(IL-18Rα) normalized to WT IL-18; SPR; ratio from the bound KD BP >10,000 nM
Procedure: as §1

[9] = molecular target: T1, Human IL-18Rα ectodomain (amino acids …); test: SPR
[10] = molecular target: T3, IL-18 receptor (IL-18Rα / IL-18Rβ heterodimer) on HEK-Blue IL-18 reporter cells (UniProt Q13478 19-541; O95256 20-599, limits assumed); test: cell-based or functional assay
T3 sequence (looked up) 1: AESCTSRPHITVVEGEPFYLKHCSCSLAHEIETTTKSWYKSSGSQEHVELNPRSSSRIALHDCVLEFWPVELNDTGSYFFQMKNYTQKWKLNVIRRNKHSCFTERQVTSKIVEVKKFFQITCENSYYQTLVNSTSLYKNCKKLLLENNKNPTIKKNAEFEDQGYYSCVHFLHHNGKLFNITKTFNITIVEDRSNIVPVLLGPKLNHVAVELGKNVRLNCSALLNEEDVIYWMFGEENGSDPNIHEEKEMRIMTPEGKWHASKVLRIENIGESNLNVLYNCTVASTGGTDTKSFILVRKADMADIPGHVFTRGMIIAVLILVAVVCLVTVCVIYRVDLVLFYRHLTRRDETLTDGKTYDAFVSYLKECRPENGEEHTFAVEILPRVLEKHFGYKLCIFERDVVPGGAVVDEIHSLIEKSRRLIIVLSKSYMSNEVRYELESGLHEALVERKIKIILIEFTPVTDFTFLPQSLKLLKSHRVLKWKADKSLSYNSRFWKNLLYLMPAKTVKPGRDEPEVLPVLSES
T3 sequence (looked up) 2: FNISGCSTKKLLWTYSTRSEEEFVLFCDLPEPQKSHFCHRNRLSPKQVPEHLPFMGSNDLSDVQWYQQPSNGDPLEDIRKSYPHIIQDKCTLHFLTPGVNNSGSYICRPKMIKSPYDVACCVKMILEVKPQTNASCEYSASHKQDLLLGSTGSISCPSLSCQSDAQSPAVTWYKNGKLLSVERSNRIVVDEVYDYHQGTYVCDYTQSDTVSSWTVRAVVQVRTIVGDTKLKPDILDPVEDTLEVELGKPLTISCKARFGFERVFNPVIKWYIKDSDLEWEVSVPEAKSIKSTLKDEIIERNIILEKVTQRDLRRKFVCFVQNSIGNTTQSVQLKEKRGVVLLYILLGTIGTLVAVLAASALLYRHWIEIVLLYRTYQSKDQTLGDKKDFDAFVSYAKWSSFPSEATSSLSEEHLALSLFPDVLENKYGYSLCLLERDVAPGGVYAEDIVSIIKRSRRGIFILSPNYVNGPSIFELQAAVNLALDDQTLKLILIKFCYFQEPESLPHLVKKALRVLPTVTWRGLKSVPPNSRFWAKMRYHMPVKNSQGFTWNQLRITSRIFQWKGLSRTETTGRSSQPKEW

[11] = molecular target: T1, Human IL-18Rα ectodomain (amino acids …); test: SPR (Biacore T100), hIL-18Rα as surface ligand; Exp 2
Procedure: as §1

[12] = molecular target: T2, Human IL-18BP (amino acids 31-194), …; test: SPR; KD(IL-18BP)/KD(IL-18Rα) normalized to WT IL-18; SPR; normalized ratio, a bound from KD BP >10,000 nM
Procedure: as §1

[13] = molecular target: T1, Human IL-18Rα ectodomain (amino acids …); test: SPR, apparent KD, second value of the cell
Procedure: as §1

[14] = molecular target: T1, Human IL-18Rα ectodomain (amino acids …); test: SPR, apparent KD, first value of the cell
Procedure: as §1

B1: SEQ ID NO: 89 (second generation human DR-IL-18 variant 6-12) (ligand)
chain: YFGKLESKLSVIRNLNDQVLFIDQGNRPLFEDMTDSDCRDNAPRTIFIISKYSDSLARGLAVTISVKCEKISTLSCENKIISFKEMNPPDNIKDTKSDIIFFQRDVPGHSRKMQFESSSYEGYFLACEKERDLFKLILKKEDELGDRSIMFTVQNED
notes: Engineered variant; recombinant soluble analyte in SPR and cell assays
Kd [1]: 2.2 nM | Kd [2]: 1.8 nM | koff [3]: 0.00091 s⁻¹ | kon [3]: 495000 M⁻¹ s⁻¹ | Kd [4]: 2.24 nM | Dissociation Constant Ratio normalized to WT IL-18 [5]: > 17000 | KD ratio IL-18BP/IL-18Rα [6]: > 1200 | Kd [7]: 17 nM | IL-18 BP:Rα Dissociation Constant Ratio [8]: > 9.32e+06 | Kd [9]: 2.2 nM | EC50-#1 (M), HEK-Blue reporter [10]: 1.43e-10 M | EC50-#2 (M), HEK-Blue reporter [10]: 5.44e-11 M | Kd [11]: 1.84 nM

B2: SEQ ID NO: 91 (second generation human DR-IL-18 variant 6-29) (ligand)
chain: B1 chain with L56R, D105N, S110G
notes: as for B1
IL-18 BP:Rα Dissociation Constant Ratio [12]: > 7.59e+06 | Kd [13]: 2.7 nM | Kd [14]: 2.1 nM | koff [3]: 0.00119 s⁻¹ | kon [3]: 575000 M⁻¹ s⁻¹ | Kd [4]: 2.65 nM | Kd [7]: 37 nM | Kd [9]: 2.7 nM | Kd [11]: 2.07 nM
